Measurements: patent publication US11673947B2, “Target tissue-specific antigen-binding molecule” (Chugai Seiyaku Kabushiki Kaisha, priority 2012, dated 2023)

Key:
BaF/hIL-6R cells = assay: Flow cytometry, binding to membrane-type hIL-6R on BaF/hIL-6R cells; type: cell-based
Description: 6RNMSC1-2_F02 antibody which has an antigen-binding activity in the presence of kynurenine as described in Example 14 was assessed for its binding to soluble hIL-6R. As a first step in assessing the ADCC activity of 6RNMSC1-2_F02 to hIL-6R-expressing cells, 6RNMSC1-2_F02 was evaluated as to whether it has the ability to bind to membrane-type hIL-6R expressed in hIL-6R-expressing cells. Specifically, the binding of 6RNMSC1-2_F02 to cells of the BaF/hIL-6R line (WO2012/073992) was assayed and analyzed using a flow cytometer. An appropriate number of BaF/hIL-6R cells were prepared and blocked with PBS containing 2% FBS on ice for one hour or more. Supernatant was removed from the blocked cells by centrifugation, and 100 μl of 6RNMSC1-2_F02 or the control antibody MRA (the heavy chain and light chain sequences are shown in SEQ ID NOs: 92 and 93, respectively) was added under two conditions: in the presence or absence of a final concentration of kynurenine at 100 μM. In this step, the antibodies were contacted with cell-membrane hIL-6R on ice for 30 minutes. […] Then, in the presence or absence of kynurenine, the complex was contacted with a secondary antibody (Beckman Coulter IM1627) that recognizes the antibody constant region. […] The binding of 6RNMSC1-2_F02 to the prepared cells was assayed and analyzed using the BD FACS cant II Flow Cytometer (BD).

[1] = target: T1, human IL6 receptor (IL-6R) (Homo sapiens, UniProt P08887); assay: Biacore T200, interaction of 6RNMSC1-2_F02 with human IL6 receptor with or without kynurenine; type: binding; conditions: 25° C.
T1 sequence (P08887 20-355 limits assumed): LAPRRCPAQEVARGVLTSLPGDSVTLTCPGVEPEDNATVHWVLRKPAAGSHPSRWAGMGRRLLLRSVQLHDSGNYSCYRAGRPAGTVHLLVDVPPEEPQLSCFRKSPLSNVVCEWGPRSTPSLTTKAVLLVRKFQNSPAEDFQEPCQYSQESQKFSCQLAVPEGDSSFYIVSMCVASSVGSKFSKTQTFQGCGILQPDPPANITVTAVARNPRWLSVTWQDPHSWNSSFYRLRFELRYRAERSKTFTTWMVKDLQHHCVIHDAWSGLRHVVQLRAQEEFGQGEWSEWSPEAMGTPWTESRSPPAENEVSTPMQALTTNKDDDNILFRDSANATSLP
From the text: Biacore T200 (GE Healthcare) was used to analyze the interaction of 6RNMSC1-2_F02 with human IL6 receptor (IL-6R) in antigen-antibody reaction. Sensor chip CM5 (GE Healthcare) was immobilized with an appropriate amount of protein A (Invitrogen) by amine coupling. The antibody of interest was captured by the chip to allow interaction with IL-6R as an antigen. The running buffer used was 20 mmol/1 ACES, 150 mmol/l NaCl, 0.05% (w/v) Tween20, pH 7.4. The interaction with the antigen IL-6R was assayed at 25° C. The buffers used to dilute IL-6R were the running buffer itself, and a buffer prepared by adding 100 μmol/l kynurenine to the running buffer, and in addition a buffer prepared as a control by adding 10 mmol/l ATP to the running buffer.
A diluted IL-6R solution and a running buffer as a blank were injected at a flow rate of […] for one minute to allow interaction of IL-6R with 6RNMSC1-2_F02 captured on the sensor chip. Then, the running buffer was injected at a flow rate of 10 μl/min for one minute. After observation of IL-6R dissociation from the antibody, 10 mmol/l glycine-HCl (pH 1.5) was injected at a flow rate of 30 μl/min for 30 seconds to regenerate the sensor chip. The dissociation constant KD (M) of 6RNMSC1-2_F02 was calculated for IL-6R based on the association rate constant ka (1/Ms) and dissociation rate constant kd (1/s), both of which are kinetic parameters calculated from the sensorgram obtained by the measurement. Each parameter was calculated using the Biacore T200 Evaluation Software (GE Healthcare).
The running buffers used were 20 mmol/1 ACES, 150 mmol/l NaCl, 0.05% (w/v) Tween20, pH 7.4, and 20 mmol/1 ACES, 150 mmol/l NaCl, 0.05% (w/v) Tween20, pH 7.4, 100 μmol/l kynurenine, and assay was carried out at 25° C. IL-6R was immobilized onto Sensor chip CM5 by amine coupling; and 6RNMSC1-2_F02 was diluted to 5 μg/ml with 20 mmol/1 ACES, 150 mmol/l NaCl, 0.05% (w/v) Tween20, pH 7.4, containing 100 μmol/l kynurenine, and it was interacted as an analyte for 180 seconds. Then, the dissociation of […] was monitored under each running buffer condition. In order to compare the degree of dissociation between the respective running buffer conditions, the values were normalized by taking as 100 the amount of 6RNMSC1-2_F02 bound to IL-6R in the presence of 100 μmol/l kynurenine and compared.
Next, Biacore T200 (GE Healthcare) was used to assess the effect of kynurenine concentration on the antigen-antibody reaction between 6RNMSC1-2_F02 and IL-6R. The running buffer used was 20 mmol/1 ACES, 150 mmol/l NaCl, 0.05% (w/v) Tween20, pH 7.4. The antigen-antibody reaction between 6RNMSC1-2_F02 and human IL-6R was assayed at 25° C. IL-6R was immobilized onto sensor chip CM5 by amine coupling; and 6RNMSC1-2_F02 was diluted to 1 μg/ml with 20 mmol/l ACES, 150 mmol/l NaCl, 0.05% (w/v) Tween20, pH 7.4 containing various concentrations of kynurenine, and it was allowed to interact as an analyte for 180 seconds to observe changes in the amount of binding.

B1: 6RNMSC1-2_F02: antibody that binds to hIL-6R in the presence of kynurenine; SEQ ID NOs: 86 and 87 (antibody, listed as Homo sapiens, V domains shown)
VH: QVQLVQSGAEVKKPGSSVKVSCKASGGTFSSYAISWVRQAPGQGLEWMGGIIPIFGTANYAQKFQGRVTITADESTSTAYMELSSLRSEDTAVYYCARDAPVVARPRGAFDIWGQGTMVTVSS
VL: DIVMTQTPLSSPVTLGQPASISCRSSQSLVHSDGNTYLSWLQQRPGQPPRLLIHEISNRFSGVPDRFSGSGAGTNFTLKISRVEAEDVGVYYCMQATQFPRTFGQGTKVEIK
fluorescence (binding to membrane-type hIL-6R) (BaF/hIL-6R cells; in the absence of kynurenine): not detectable | fluorescence (binding to membrane-type hIL-6R) (BaF/hIL-6R cells; in the presence of 100 μM kynurenine): fluorescence shift was observed | IL-6R binding (sensorgram) ([1]; 1 μmol/l IL-6R, in the absence of kynurenine): not detectable | binding to IL-6R (sensorgram) ([1]; 1 μmol/l IL-6R, in the presence of 100 μmol/l kynurenine): binds to IL-6R | effect of kynurenine concentration on amount bound to IL-6R ([1]; IL-6R immobilized, antibody as analyte for 180 seconds): the higher the concentration of kynurenine serving as a switch, the greater the amount of 6RNMSC1-2_F02 bound to IL-6R | dissociation from IL-6R ([1]; bound with 100 μmol/l kynurenine, then buffer without kynurenine, IL-6R immobilized): rapidly dissociates from IL-6R in the absence of kynurenine | Kd ([1]; in the presence of 100 μmol/l kynurenine, read-out: dissociation constant KD): 1500 nM
